Results on one substance are retold here after article PMC12720783.

This test has as its target LcrG, full length (Yersinia pseudotuberculosis) (UniProt P69958). Kind of test: ITC.

Sequence of LcrV, full length (P23994 whole entry): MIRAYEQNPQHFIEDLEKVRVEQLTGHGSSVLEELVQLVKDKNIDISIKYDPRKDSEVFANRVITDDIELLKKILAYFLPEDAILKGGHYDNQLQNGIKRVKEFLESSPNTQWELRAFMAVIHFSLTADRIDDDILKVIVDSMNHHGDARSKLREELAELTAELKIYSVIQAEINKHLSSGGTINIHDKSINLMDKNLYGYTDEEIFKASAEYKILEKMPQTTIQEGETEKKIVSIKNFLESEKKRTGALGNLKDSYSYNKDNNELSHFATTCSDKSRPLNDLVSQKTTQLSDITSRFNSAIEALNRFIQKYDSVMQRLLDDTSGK
Sequence of LcrG, full length (Yersinia pseudotuberculosis) (P69958 whole entry): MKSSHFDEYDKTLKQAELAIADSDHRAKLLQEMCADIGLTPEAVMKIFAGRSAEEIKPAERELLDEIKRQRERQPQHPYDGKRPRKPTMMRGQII

A word on the stoichiometry N: it is a count of units in the complex or per binding partner. On to “LcrV, full length (from UniProt P23994 1-326) (natural protein)”, for which the stoichiometry N amounted to 1.
